{"source": "the nanobody polyreactivity screen of Harvey et al. (2022)", "data": [{"test": "yeast display, Sf9 membrane polyspecificity reagent, FACS + sequencing; frameworks hold sequencing errors", "in_short": "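A nanobody's polyreactivity label depends on the gate it was sorted from. Yeast display cells were stained with 10% biotinylated, detergent-solubilized Sf9 membrane reagent for 1 hour at 4 °C, enriched on streptavidin microbeads and sorted by FACS. The low and high (top ~1%) gates were set on anti-HA fluorescence for expression and streptavidin fluorescence for reagent binding.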", "values": [{"sequence": "QVQLVESGGGLVQAGGSLRLSCAASGFTFGTYAMGWYRPAPGKERELVAAITRRGDNTYYADSVKGRFTISRDNAKNTVYLQMNSLNPEDTAVYYCIAAKGGRYPDYDYWGQGTQVTVSS", "polyreactivity (PSR sort gate)": "high polyreactivity"}, {"sequence": "QVQLVESGGGIVQAGGSIRLSCAASGYTFAKYAMGWYRQAPGKERELVAAITFSDTSTYYADSVKGRFTISRDNAKNTVYLQMNSLKPEDTAVYYCAVVGPYYSRFGGRYYYWGQGTQVTVSS", "polyreactivity (PSR sort gate)": "low polyreactivity"}, {"sequence": "QVQLVESGGGLVQAGGSLRLSCAASGSIISYYAMGWYRQAPGKERELVAVINSGSTNYADSVKGRFTLSRDNSKNTVYLQMHSLNPEDTAVYYCAAYSLLYLLEQYTTAPYDYWGQGTQVTVSS", "polyreactivity (PSR sort gate)": "low polyreactivity"}, {"sequence": "QVQLVESGGGLVQAGGSLRLSCAASGFIFYAYAMGWYRQAPGKERELVAAISYSGGSTYYADSVKGRFTISRDNAKNTVYLQMNSLKPEDTAVYYCNTVSYGYSSKLYDYWGQGTLVTVSS", "polyreactivity (PSR sort gate)": "high polyreactivity"}, {"sequence": "QVQLVESGGGLVQAGGSLRLSCAASGLIFPSYAMGWYRQAPGKERELVAAITFSGSDTNYADSVKGRFTISRDNAKNTVYLQMNSLKPEDTAVYYCAAAYFDFWGWLHDYWGQGTQVTVSS", "polyreactivity (PSR sort gate)": "low polyreactivity"}, {"sequence": "QVQLVESGGGLVQAGGSLRLSCAASGNTLTPYTMGWYRQAPGKERELVAAINRSGGSTYYADSVKGRVTISRDNGKNTVYLQMNSLKPEDTAVYYCAAFGYYNFGYYYWGQGSQVTVSS", "polyreactivity (PSR sort gate)": "high polyreactivity"}, {"sequence": "QVQLVESGGGLVQAGGSLRLSCAASGSTFTWYAMGWYRQAPGKERELVADISYGGGSTYYADSVKGRFTISRDNAKNTVYLQMNSLKPEDTAVYYCAAESIPYYSYDYWGQGTQVTVSS", "polyreactivity (PSR sort gate)": "low polyreactivity"}, {"sequence": "QVQLVESGGGLVQAGGSLRLSCAASGLIFGKYAMGWYRQAPGKERELVAAITSSGGGTYYADSVKGRFTISRDNAKNTVYLQMNSLKPEDTAVYYCATGPDPKYDYWGQGTQVTVSS", "polyreactivity (PSR sort gate)": "high polyreactivity"}, {"sequence": "QVQLVESGGGLVQAGGSLRLSCAASGSTLFFYTMGWYRQAPGKERELVAAITRGGSTYYADSVKGRFTISRDNAKNTVYLQLNSLKPEDTAVYYCAAPYVRPKKVYNYDYWGQGTQVTVSS", "polyreactivity (PSR sort gate)": "high polyreactivity"}, {"sequence": "QVQLVESGGGLVQAGGSLRLSCAASGSIFVRYAMGWYRQAPGKERELVAGITNSGGSTYYADSVKGRFTISRDNEKNTVYLQMNSLKPEDTAVYYCAADAGGWWYKYYYWGQGTQVTVSS", "polyreactivity (PSR sort gate)": "high polyreactivity"}, {"sequence": "QVQLVESGGGLVQAGGSLRLSCAASGSILGINVMGWYRQAPGKERELVAAISRRGGSTYYADSVKGRFTISRDNAKNTVYLQMNSLKPEDTAVYYCAATRTARTMGYCGQGTQVTVSS", "polyreactivity (PSR sort gate)": "high polyreactivity"}, {"sequence": "QVQLVESGGGLVQAGGSLRLSCAASGSIFATNAMGWYRQAPGKERELVASISSGGGSTYDADSVKGRFTLSRDNAKNTVYLQMNSLKPEDTAVYYCARRIGQGSRPYWLETWRYPYDYWGQGTQVTVSS", "polyreactivity (PSR sort gate)": "low polyreactivity"}, {"sequence": "QVQLVESGGGLLQAGGSLRLSCAASGRTIVQNAMGWYRQAPGKERELVASIRYRDGSTYYADSVKGRFTISRDNAKNTVYLQMNSLKTEDTAVYYCAVRYYRKYYYSPFDYWGQGTQVTVSS", "polyreactivity (PSR sort gate)": "high polyreactivity"}, {"sequence": "QVQLVESRGGLVQAGGSLRLSCAASGITFTRNVMGWYRPAPGKERELVAGISRSGGRTYYADSVKGRFTISRENAKNTVYLQMNSLKPEDTAVYYCAADYSRRTRVDDDYDYWGQGTQVTVSS", "polyreactivity (PSR sort gate)": "high polyreactivity"}, {"sequence": "QVQLVESGGGLVQAGGSLRLSCAASGRTFIINTMGWYRQAHGKERELVAAISKNGATTNYADSVKGRFTISRDNAKNTVYFQMNSLKPEDTAVYYCNARYSGYLRLDYWGQGTQVTVSS", "polyreactivity (PSR sort gate)": "low polyreactivity"}, {"sequence": "QVKLVESGGGLVQAGGSLRLSCAASGITFVSYAMGWYTQAPGKEREFVAAINRSGGSTYYADSVKGRFTISRDNAKNTVYLQMNSLKPEDTAVYYCAARRNLAYYHSGYWGQGTQVTVSS", "polyreactivity (PSR sort gate)": "high polyreactivity"}, {"sequence": "QVQLVESGGGLVQAVGSLRLICAPSGSIFGTNAMGWYRQAPGKERELVATISYGDGSTYYADSVKGRFTISRDNAKNTVYLQMNSLKPEDTAVYYCNTGVYSSGGPLDYWGQGTQVTVSS", "polyreactivity (PSR sort gate)": "low polyreactivity"}, {"sequence": "RVQLQESGGGLVQAGGSLRLSCEASGTIFIRGDMGWYRQATGKEREFVATIDTGSNTYYADSEKGRFTISRDNAKNAVYLQMNCLKPGDTAVYYCVVDYQLSGRLRYWGQGTQVTLSS", "polyreactivity (PSR sort gate)": "low polyreactivity"}, {"sequence": "QVQLVESGGGLVQAGGSLRLSCAASGLTFDVYTMGWYRQAPGKEREFVAGITSGGSTDYADSVKGRFTISRDNAKNTVYLQMNSLKPEDTAVYYCNKPFPYYPDGPNGYDYWGQGTQVTVSS", "polyreactivity (PSR sort gate)": "low polyreactivity"}, {"sequence": "QVQLVESGGGLVQAAGSLRLSCAASGRTFKYNAMGWYRQAPGKERELVAAITRSGTTYYADSVKGRFTISRDNAKNTVYLQMNSLKPEDTAVYYCNARIVNYGSYYYWGQGTQVTVSS", "polyreactivity (PSR sort gate)": "high polyreactivity"}, {"sequence": "QVQLVESGGGLVQAGGSLRLSCAASGFTFSSNAMGWYRQAPGKERELVAAISSSGARTYYADSVKGRFTISRDNAKNTVYLQMNSLKPEDTAVYYCNARGLAGRKGYDYWGHGTQVTVSS", "polyreactivity (PSR sort gate)": "high polyreactivity"}, {"sequence": "QVQLVESGGGLVQAGGSLRLSCAASGFTFTWYAMGWYRQAPGKERELVAAISSGGGRTYYADSVKGRFTISRDNAKNTVYLQMNSLKPEDTAVYYCNAVAGGVYVDNGYDYWGQGTQVTVSS", "polyreactivity (PSR sort gate)": "high polyreactivity"}]}]}
